The target in test [1] is T1, α3β1 integrin (UniProt P26006 33-1051; P05556 21-798).
T1 construct: whole, on cells; Never used as a purified protein; It is always the receptor on HCE cells in adhesion assays; also called integrin α3β1; functional receptor for βig-h3
The test is described as follows: HCE cell adhesion to coated peptide (100 µM) with function-blocking anti-integrin mAbs. On the procedure: (§1) Function-blocking experiments using monoclonal antibodies against various integrin subunits were carried out to examine whether α3β1 integrin, known as a surface receptor of βig-h3, would be involved in the cell adhesion mediated by the synthetic peptides EPDIM and NKDIL. HCE was preincubated at 37° C. for 30 min in the presence of each of the monoclonal antibodies (5 μg/ml) against different types of integrins. The preincubated cells were transferred onto plates precoated with 100 μM EPDIM or 100 μM NKDIL and then incubated further at 37° C. for 1 hour, followed by the quantitative analysis with hexosaminidase substrate as in Example 1-2.

Test [2] deals with T1, α3β1 integrin. The test is described as follows: HCE cell adhesion and adhesion inhibition assays. The method, then: as §1

T1 sequence (P26006 33-1051, chain 1 of 2): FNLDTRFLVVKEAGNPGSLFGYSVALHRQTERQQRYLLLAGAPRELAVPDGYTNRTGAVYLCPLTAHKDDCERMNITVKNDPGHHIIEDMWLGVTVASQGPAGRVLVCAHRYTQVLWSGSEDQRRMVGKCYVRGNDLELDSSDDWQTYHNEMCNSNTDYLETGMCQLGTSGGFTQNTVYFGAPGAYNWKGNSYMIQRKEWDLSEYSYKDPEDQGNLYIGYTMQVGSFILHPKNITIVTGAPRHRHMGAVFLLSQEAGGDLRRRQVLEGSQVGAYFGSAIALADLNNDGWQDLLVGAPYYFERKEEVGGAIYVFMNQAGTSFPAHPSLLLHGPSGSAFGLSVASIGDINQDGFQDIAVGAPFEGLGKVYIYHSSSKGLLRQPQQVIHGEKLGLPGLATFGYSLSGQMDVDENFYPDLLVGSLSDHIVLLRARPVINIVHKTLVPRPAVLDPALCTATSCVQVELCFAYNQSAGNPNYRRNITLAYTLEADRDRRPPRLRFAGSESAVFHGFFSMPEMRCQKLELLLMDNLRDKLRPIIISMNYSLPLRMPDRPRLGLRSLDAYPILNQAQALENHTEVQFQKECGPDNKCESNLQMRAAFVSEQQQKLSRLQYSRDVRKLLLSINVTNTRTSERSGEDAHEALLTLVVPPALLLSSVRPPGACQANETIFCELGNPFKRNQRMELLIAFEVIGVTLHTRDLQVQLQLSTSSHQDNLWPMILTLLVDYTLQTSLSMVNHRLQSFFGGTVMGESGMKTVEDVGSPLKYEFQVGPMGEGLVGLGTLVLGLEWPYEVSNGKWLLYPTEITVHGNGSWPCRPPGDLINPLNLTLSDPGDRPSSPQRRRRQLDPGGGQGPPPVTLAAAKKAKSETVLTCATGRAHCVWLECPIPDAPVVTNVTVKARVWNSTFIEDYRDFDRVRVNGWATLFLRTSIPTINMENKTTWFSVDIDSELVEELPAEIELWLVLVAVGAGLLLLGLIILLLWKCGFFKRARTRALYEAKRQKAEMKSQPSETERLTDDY
T1 sequence (P05556 21-798, chain 2 of 2): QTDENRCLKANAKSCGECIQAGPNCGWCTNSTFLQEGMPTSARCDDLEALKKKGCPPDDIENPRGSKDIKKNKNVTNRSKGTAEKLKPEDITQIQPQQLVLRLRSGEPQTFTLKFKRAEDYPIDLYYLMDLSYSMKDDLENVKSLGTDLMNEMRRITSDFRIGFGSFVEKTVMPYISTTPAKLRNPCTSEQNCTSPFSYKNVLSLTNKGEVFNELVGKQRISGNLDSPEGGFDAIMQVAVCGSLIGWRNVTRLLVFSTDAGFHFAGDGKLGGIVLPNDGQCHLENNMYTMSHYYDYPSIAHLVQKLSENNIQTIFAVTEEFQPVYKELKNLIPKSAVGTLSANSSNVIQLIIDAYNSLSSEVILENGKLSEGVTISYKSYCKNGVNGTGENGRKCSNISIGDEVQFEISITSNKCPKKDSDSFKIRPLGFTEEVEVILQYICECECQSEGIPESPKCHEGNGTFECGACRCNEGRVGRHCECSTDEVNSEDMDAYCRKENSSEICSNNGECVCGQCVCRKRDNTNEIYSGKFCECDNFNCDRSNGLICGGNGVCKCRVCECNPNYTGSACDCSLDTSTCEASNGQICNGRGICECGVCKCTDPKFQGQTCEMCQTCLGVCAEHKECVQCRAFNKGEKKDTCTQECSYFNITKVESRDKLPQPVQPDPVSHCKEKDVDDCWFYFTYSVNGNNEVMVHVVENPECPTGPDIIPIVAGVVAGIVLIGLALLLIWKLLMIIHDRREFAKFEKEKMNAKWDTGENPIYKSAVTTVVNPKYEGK

B1: synthetic peptide NKDIL (peptide)
peptide: NKDIL
notes: Made by solid phase synthesis; also called 2nd fas-1 domain-derived synthetic peptide; NKDIL (a.a. 354-358)
In the case of B1, the binding result in test [1] is recorded as “binds”.

B2: synthetic peptide EPDIM (peptide)
peptide: EPDIM
notes: Made by solid phase synthesis; also called 4th fas-1 domain-derived synthetic peptide; EPDIM (a.a. 615-619)
Take B2: the binding result in test [2] is “binds”.
